Target: SARS-CoV-2 S (Acro Biosystems), unlabelled (SARS-CoV-2) (UniProt P0DTC2)
Experiment: SPR; Biacore, CM5 chip; S covalently immobilised at pH 4.0 (about 8500 RU); ERα, ACE2 or NRP1 injected at 1.56 to 200 nM; global fit to a single site binding model

Substance | Kd
ERα-full length (InVitrogen), analyte in SPR (from UniProt P03372 1-595) (receptor) | 9.7 nM
recombinant NRP1 (Acro Biosystems), analyte in SPR (from UniProt O14786 22-856) (natural protein) | 89.4 nM

Source: article doi:10.1101/2022.05.21.492920
